Changes are numbered by the printed parent chain. In names and notes the source's numbering stands.
T1: Axl (Homo sapiens, UniProt P30530)
T1 sequence (P30530 26-451 limits assumed): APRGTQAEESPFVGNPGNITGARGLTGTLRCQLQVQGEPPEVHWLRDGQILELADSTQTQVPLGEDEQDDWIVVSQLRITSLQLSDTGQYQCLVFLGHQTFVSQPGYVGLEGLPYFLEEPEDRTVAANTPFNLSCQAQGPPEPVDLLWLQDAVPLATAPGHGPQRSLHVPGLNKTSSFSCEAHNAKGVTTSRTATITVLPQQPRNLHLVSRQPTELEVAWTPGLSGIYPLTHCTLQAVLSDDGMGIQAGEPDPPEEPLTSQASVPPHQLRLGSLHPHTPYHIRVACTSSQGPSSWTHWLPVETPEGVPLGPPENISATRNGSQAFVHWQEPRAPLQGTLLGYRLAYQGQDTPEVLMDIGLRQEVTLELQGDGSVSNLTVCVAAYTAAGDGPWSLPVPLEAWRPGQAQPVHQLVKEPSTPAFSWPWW

B1: HC-Y101N (antibody, V domains shown)
VH: EVQLVQSGAEVKKPGATVKISCKVSGYSFTGHTMNWIRQPPGKGLEWIGLIKPSNGGTSYNQKFKGRVTISADKSISTAYLQWSSLKASDTAMYYCAHGHNESYFAMDYWGQGTLVTVSS
VL: DIQMTQSPSSLSASVGDRVTITCKASQDVSSAVAWYQQKPGQAPRLLIYWASTRHTGVPSRFSGSGSGTEFTLTISSLQPDDFATYYCQEHFSTPLTFGQGTKVEIK
B2: HC-A106L (antibody, V domains shown)
VH: B1 VH with N101Y, A106L
VL: B1 VL
B3: HC-E102A (antibody, V domains shown)
VH: B1 VH with N101Y, E102A
VL: B1 VL
B4: HC-W110R (antibody, V domains shown)
VH: B1 VH with N101Y, W110R
VL: B1 VL
B5: HC-T033I (antibody, V domains shown)
VH: B1 VH with T33I, N101Y
VL: B1 VL
B6: HC-E102F (antibody, V domains shown)
VH: B1 VH with N101Y, E102F
VL: B1 VL
B7: HC-Y104P (antibody, V domains shown)
VH: B1 VH with N101Y, Y104P
VL: B1 VL
B8: HC-F105V (antibody, V domains shown)
VH: B1 VH with N101Y, F105V
VL: B1 VL
B9: HC-F105N (antibody, V domains shown)
VH: B1 VH with N101Y, F105N
VL: B1 VL
B10: HC-E102I (antibody, V domains shown)
VH: B1 VH with N101Y, E102I
VL: B1 VL
B11: HC-E102H (antibody, V domains shown)
VH: B1 VH with N101Y, E102H
VL: B1 VL
B12: HC-W110L (antibody, V domains shown)
VH: B1 VH with N101Y, W110L
VL: B1 VL
B13: HC-E102G (antibody, V domains shown)
VH: B1 VH with N101Y, E102G
VL: B1 VL
B14: HC-W110N (antibody, V domains shown)
VH: B1 VH with N101Y, W110N
VL: B1 VL
B15: HC-A106G (antibody, V domains shown)
VH: B1 VH with N101Y, A106G
VL: B1 VL
B16: HC-W110T (antibody, V domains shown)
VH: B1 VH with N101Y, W110T
VL: B1 VL
B17: HC-Y104E (antibody, V domains shown)
VH: B1 VH with N101Y, Y104E
VL: B1 VL
B18: HC-W110D (antibody, V domains shown)
VH: B1 VH with N101Y, W110D
VL: B1 VL
B19: HC-F105S (antibody, V domains shown)
VH: B1 VH with N101Y, F105S
VL: B1 VL
B20: HC-F105T (antibody, V domains shown)
VH: B1 VH with N101Y, F105T
VL: B1 VL
B21: HC-E102D (antibody, V domains shown)
VH: B1 VH with N101Y, E102D
VL: B1 VL
B22: HC-M107E (antibody, V domains shown)
VH: B1 VH with N101Y, M107E
VL: B1 VL
B23: HC-E102M (antibody, V domains shown)
VH: B1 VH with N101Y, E102M
VL: B1 VL
B24: HC-A106D (antibody, V domains shown)
VH: B1 VH with N101Y, A106D
VL: B1 VL
B25: HC-A106Y (antibody, V domains shown)
VH: B1 VH with N101Y, A106Y
VL: B1 VL

Target: Axl (UniProt P30530)
Assay: ELISA, 1:9 dilution
Conditions: not given

| Molecule | Affinity ELISA CPE mutant ratio (1:9, pH 6.0/7.4) |
| --- | --- |
| B1 | 2.91 |
| B2 | 1.61 |
| B3 | 1.69 |
| B4 | 1.06 |
| B5 | 1 |
| B6 | 1.36 |
| B7 | 2.42 |
| B8 | 2.8 |
| B9 | 2.64 |
| B10 | 1.7 |
| B11 | 2.31 |
| B12 | 0.924 |
| B13 | 2.68 |
| B14 | 0.8 |
| B15 | 2.2 |
| B16 | 1.37 |
| B17 | 1.8 |
| B18 | 1.11 |
| B19 | 4.54 |
| B20 | 4.02 |
| B21 | 2.85 |
| B22 | 1.36 |
| B23 | 2.36 |
| B24 | 2.51 |
| B25 | 3.06 |

Target: T1, Axl
Assay: Affinity ELISA of CPE mutant antibodies for binding to Axl at pH 6.0 over pH 7.4
Conditions: heavy chain variable region mutants; 1:3 dilution
In short: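 Single-point mutant anti-Axl antibody library (CPE) screened by ELISA for binding at pH 6.0 versus pH 7.4, at 1:3 and 1:9 antibody dilutions, in serum with FLAG-tag detection and carbonate (Krebs-Ringer) buffer. Selection criterion: pH 6.0/pH 7.4 binding ratio ≥1.5 at either dilution.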

| Molecule | Affinity ELISA CPE mutant ratio (1:3, pH 6.0/7.4) |
| --- | --- |
| B1 | 2.174 |
| B2 | 21.538 |
| B3 | 1.538 |
| B4 | 5.991 |
| B5 | 1.594 |
| B6 | 1.879 |
| B7 | 2.535 |
| B8 | 2.429 |
| B9 | 2.364 |
| B10 | 2.016 |
| B11 | 2.076 |
| B12 | 8.220 |
| B13 | 1.798 |
| B14 | 4.304 |
| B15 | 1.519 |
| B16 | 7.469 |
| B17 | 1.321 |
| B18 | 3.716 |
| B19 | 3.898 |
| B20 | 3.463 |
| B21 | 2.674 |
| B22 | 2.164 |
| B23 | 2.079 |
| B24 | 3.389 |
| B25 | 3.293 |

Same assay, conditions: heavy chain variable region mutants; 1:9 dilution

| Molecule | Affinity ELISA CPE mutant ratio (1:9, pH 6.0/7.4) |
| --- | --- |
| B1 | 2.907 |
| B2 | 1.613 |
| B3 | 1.687 |
| B4 | 1.062 |
| B5 | 1.005 |
| B6 | 1.363 |
| B7 | 2.416 |
| B8 | 2.801 |
| B9 | 2.642 |
| B10 | 1.696 |
| B11 | 2.315 |
| B12 | 0.924 |
| B13 | 2.677 |
| B14 | 0.800 |
| B15 | 2.196 |
| B16 | 1.372 |
| B17 | 1.796 |
| B18 | 1.112 |
| B19 | 4.545 |
| B20 | 4.021 |
| B21 | 2.853 |
| B22 | 1.357 |
| B23 | 2.363 |
| B24 | 2.506 |
| B25 | 3.060 |

Target: Axl (UniProt P30530)
Assay: ELISA, 1:3 dilution
Conditions: not given

| Molecule | Affinity ELISA CPE mutant ratio (1:3, pH 6.0/7.4) |
| --- | --- |
| B1 | 2.17 |
| B2 | 21.5 |
| B3 | 1.54 |
| B4 | 5.99 |
| B5 | 1.59 |
| B6 | 1.88 |
| B7 | 2.54 |
| B8 | 2.43 |
| B9 | 2.36 |
| B10 | 2.02 |
| B11 | 2.08 |
| B12 | 8.22 |
| B13 | 1.8 |
| B14 | 4.3 |
| B15 | 1.52 |
| B16 | 7.47 |
| B17 | 1.32 |
| B18 | 3.72 |
| B19 | 3.9 |
| B20 | 3.46 |
| B21 | 2.67 |
| B22 | 2.16 |
| B23 | 2.08 |
| B24 | 3.39 |
| B25 | 3.29 |

From patent publication US20250276075A1, “METHODS OF TREATING AXL-EXPRESSING CANCERS WITH ANTI-AXL ANTIBODIES, ANTIBODY FRAGMENTS AND THEIR IMMUNOCONJUGATES” (BIOATLA, INC., priority 2020, published 2025)
